Reference: patent publication US10702592B2, “Peptides and combination of peptides for use in immunotherapy against NHL and other cancers” (Immatics Biotechnologies GmbH, priority 2016, dated 2020)

These substances were tested against HLA-A*02:01 (Homo sapiens, UniProt P04439, D140Y/D185E/D98H/E176V/E277Q/G131W/G231S/I119V/I121R/I166T/I218V/L300P/L318F/N151K/N90K/P208A/P217A/Q86G/Q94H/R138H/R169H/T345S) (assay: MHC binding assay (UV-ligand exchange, beta2m ELISA)). Conditions: binding to HLA-A*02:01, UV-ligand exchange.
From the text: Candidate peptides for T cell based therapies according to the present invention were further tested for their MHC binding capacity (affinity). The individual peptide-MHC complexes were produced by UV-ligand exchange, where a UV-sensitive peptide is cleaved upon UV-irradiation, and exchanged with the peptide of interest as analyzed. Only peptide candidates that can effectively bind and stabilize the peptide-receptive MHC molecules prevent dissociation of the MHC complexes. To determine the yield of the exchange reaction, an ELISA was performed based on the detection of the light chain (β2m) of stabilized MHC complexes. The assay was performed as generally described in Rodenko et al. (Rodenko et al., 2006).
96 well MAXISorp plates (NUNC) were coated over night with 2 ug/ml streptavidin in PBS at room temperature, washed 4× and blocked for 1 h at 37° C. in 2% BSA containing blocking buffer. Refolded HLA-A*02:01/MLA-001 monomers served as standards, covering the range of 15-500 ng/ml. Peptide-MHC monomers of the UV-exchange reaction were diluted 100 fold in blocking buffer. Samples were incubated for 1 h at 37° C., washed four times, incubated with 2 ug/ml HRP conjugated anti-β2m for 1 h at 37° C., washed again and detected with TMB solution that is stopped with […]. Absorption was measured at 450 nm. Candidate peptides that show a high exchange yield (preferably higher than 50%, most preferred higher than 75%) are generally preferred for a generation and production of antibodies or fragments thereof, and/or T cell receptors or fragments thereof, as they show sufficient avidity to the MHC molecules and prevent dissociation of the MHC complexes.

Substance	Peptide exchange (MHC class I binding score, peptide exchange yield)
72 (TLQEETAVYL; listed as Homo sapiens) [compound 72]	“++” (≥20% = ++)
75 (AALKYIPSV; listed as Homo sapiens) [compound 75]	“+++” (≥50 = +++)
76 (ALADLVPVDVVV; listed as Homo sapiens) [compound 76]	“++++” (≥75% = ++++)
77 (ALLDVSNNYGI; listed as Homo sapiens) [compound 77]	“++++” (≥75% = ++++)
78 (AMEEAVAQV; listed as Homo sapiens) [compound 78]	“+++” (≥50 = +++)
79 (AMKEEKEQL; listed as Homo sapiens) [compound 79]	“++” (≥20% = ++)
80 (YLFDEIDQA; listed as Homo sapiens) [compound 80]	“+++” (≥50 = +++)
81 (FIFSYITAV; listed as Homo sapiens) [compound 81]	“++” (≥20% = ++)
82 (FLIDGSSSV; listed as Homo sapiens) [compound 82]	“+++” (≥50 = +++)
83 (FLMDDNMSNTL; listed as Homo sapiens) [compound 83]	“+++” (≥50 = +++)
84 (FLQELQLEHA; listed as Homo sapiens) [compound 84]	“+++” (≥50 = +++)
85 (GLAPAEVVVATVA; listed as Homo sapiens) [compound 85]	“+++” (≥50 = +++)
86 (GLATIRAYL; listed as Homo sapiens) [compound 86]	“+++” (≥50 = +++)
87 (GLFARIIMI; listed as Homo sapiens) [compound 87]	“++” (≥20% = ++)
88 (GLFDNRSGLPEA; listed as Homo sapiens) [compound 88]	“+++” (≥50 = +++)
89 (GLTALHVAV; listed as Homo sapiens) [compound 89]	“+++” (≥50 = +++)
90 (HLDEVFLEL; listed as Homo sapiens) [compound 90]	“+++” (≥50 = +++)
91 (HLSSTTAQV; listed as Homo sapiens) [compound 91]	“++” (≥20% = ++)
92 (KLLFEIASA; listed as Homo sapiens) [compound 92]	“+++” (≥50 = +++)
93 (KLLGSLQLL; listed as Homo sapiens) [compound 93]	“++++” (≥75% = ++++)
94 (LLAGQATTAYF; listed as Homo sapiens) [compound 94]	“+++” (≥50 = +++)

Substance	Peptide exchange (MHC class I binding score, peptide exchange yield)
95 (LLFDLIPVVSV; listed as Homo sapiens) [compound 95]	“+++” (≥50 = +++)
96 (LLLNENESLFL; listed as Homo sapiens) [compound 96]	“+++” (≥50 = +++)
97 (LLNFSPGNL; listed as Homo sapiens) [compound 97]	“+” (≥10% = +)
98 (MLQDGIARL; listed as Homo sapiens) [compound 98]	“+++” (≥50 = +++)
99 (QLYDGATALFL; listed as Homo sapiens) [compound 99]	“++” (≥20% = ++)
100 (RLIRTIAAI; listed as Homo sapiens) [compound 100]	“+++” (≥50 = +++)
101 (SLDQSTWNV; listed as Homo sapiens) [compound 101]	“++++” (≥75% = ++++)
102 (SLFAAISGMIL; listed as Homo sapiens) [compound 102]	“+++” (≥50 = +++)
103 (SLQDHLEKV; listed as Homo sapiens) [compound 103]	“+++” (≥50 = +++)
104 (VLLGLPLLV; listed as Homo sapiens) [compound 104]	“+++” (≥50 = +++)
105 (VLTPVILQV; listed as Homo sapiens) [compound 105]	“+++” (≥50 = +++)
106 (VLYELLQYI; listed as Homo sapiens) [compound 106]	“++++” (≥75% = ++++)
107 (VQAVSIPEV; listed as Homo sapiens) [compound 107]	“+++” (≥50 = +++)
108 (YLAPENGYLM; listed as Homo sapiens) [compound 108]	“+++” (≥50 = +++)
109 (YLFQFSAAL; listed as Homo sapiens) [compound 109]	“+++” (≥50 = +++)
110 (YQYPFVLGL; listed as Homo sapiens) [compound 110]	“++++” (≥75% = ++++)
111 (YLLDTLLSL; listed as Homo sapiens) [compound 111]	“+++” (≥50 = +++)
112 (FLAILPEEV; listed as Homo sapiens) [compound 112]	“+++” (≥50 = +++)
113 (FVIDSFEEL; listed as Homo sapiens) [compound 113]	“+++” (≥50 = +++)
114 (GLSDISPST; listed as Homo sapiens) [compound 114]	“++” (≥20% = ++)
115 (LLIDIIHFL; listed as Homo sapiens) [compound 115]	“++++” (≥75% = ++++)

Substance	Peptide exchange (MHC class I binding score, peptide exchange yield)
116 (SLLDNLLTI; listed as Homo sapiens) [compound 116]	“+++” (≥50 = +++)
117 (VLATILAQL; listed as Homo sapiens) [compound 117]	“++++” (≥75% = ++++)
118 (VLDGMIYAI; listed as Homo sapiens) [compound 118]	“+++” (≥50 = +++)
119 (ELCDIILRV; listed as Homo sapiens) [compound 119]	“+++” (≥50 = +++)
120 (VLLGTTWAL; listed as Homo sapiens) [compound 120]	“+++” (≥50 = +++)
121 (YLTGYNFTL; listed as Homo sapiens) [compound 121]	“+++” (≥50 = +++)
122 (AISEAQESV; listed as Homo sapiens) [compound 122]	“++” (≥20% = ++)
123 (ALLSAFVQL; listed as Homo sapiens) [compound 123]	“+++” (≥50 = +++)
124 (FLGVVVPTV; listed as Homo sapiens) [compound 124]	“+++” (≥50 = +++)
125 (FVAPPTAAV; listed as Homo sapiens) [compound 125]	“+++” (≥50 = +++)
127 (HLMEENMIVYV; listed as Homo sapiens) [compound 127]	“+++” (≥50 = +++)
128 (KLFDASPTFFA; listed as Homo sapiens) [compound 128]	“+++” (≥50 = +++)
129 (SLFEASQQL; listed as Homo sapiens) [compound 129]	“+++” (≥50 = +++)
130 (VIFSYVLGV; listed as Homo sapiens) [compound 130]	“+++” (≥50 = +++)
131 (VLIEETDQL; listed as Homo sapiens) [compound 131]	“++” (≥20% = ++)
132 (VLQDQVDEL; listed as Homo sapiens) [compound 132]	“++” (≥20% = ++)
133 (ALEELTGFREL; listed as Homo sapiens) [compound 133]	“++” (≥20% = ++)
134 (ALGRLGILSV; listed as Homo sapiens) [compound 134]	“+++” (≥50 = +++)
135 (ALTGLQFQL; listed as Homo sapiens) [compound 135]	“+++” (≥50 = +++)
